Results from the domain aggregation screens of Martell et al. (2025).

Assay: soluble fraction after stress (log2 fold change); higher = more stays soluble; pooled small domains, quantitative proteomics
Conditions: stress: 75 degC
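Note: 20 min heating vs room temperature control held 20 min.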

Row | Sequence | soluble fraction (log2)
1 | HMNINTEMEKVSYSLGVNIASSLKQQGWELDAKSLSDAFVDVFNGNKLLIDEKEASSILQNYQQKIANK | 0.0321
2 | HMNIQKYFAGREQFIELLEAVGIRTLEQFASADPSTVLPELHQAKRMLKLQTEIPSAPVFREWVNQALS | -0.636
3 | HMNIQPAMLNAANGGVAWKERGISMSQIMKRNAHTAEGSQKLWDYAFENFFQKNIDAGNIRDDR | -0.157
4 | HMNIVKGDTTANVRVVQQRLYNLGYYTYKVDGIWGTRTKTAVKKFQKDKGLVADGIVGAKTEKALGITLT | -2.35
5 | HMNIVVSSIDSNSFEIVNKETGEQAVISYDKETKKGFVLINGVKKEFFQDGNKVYYDGYVIAE | 0.0406
6 | HMNKDEFLNELKSYLSILEDEEQADILEEYTQHIDMKISTGLSEAEAIRDFGNVSELAAQILEAY | -0.465
7 | HMNKIGTIVSINGPIVKTAGDVGFVMHEMVYVGKEKLVGEVIGLTTDFTIVEVYEETSGIKPGETIEGT | -1.87
8 | HMNKKEIISVLEKIIPPSQIKNINIFGSELVIDLNIDNPSLHAKKKLEKSIMSSFDENLKIIVNFSVE | -0.252
9 | HMNKLSISALAETVSTKRKEKSMTQQDLSDATGINRALISRLEQKDFIPSIPQLEKLEEILGFELEEVF | -0.324
10 | HMNKMHKLPSVSEILNKVRLQKIHNESFIKFKIKEEIDRYRKLAKKDQLFLSRDEITYEIIEKLLNFSMPS | -3.97
11 | HMNKMIDAPDLTGLSLEDAKLVLEANKLQLGTVSHEPSDKPEDVVISQDPMEGQEIQQGGKVNLVVSYGD | 0.305
12 | HMNKNNLRNVSSKIRKSRRVLNLSQAELSKKLDISPSYLNLIESGKRPITVPLLIKLGNILGISLKDL | -1.89
13 | HMNKNQIGTNAGIVWKLLSDNVHWEYDKLKHASGLSDRDLNAAIGWLAREDKIDFDIDEQHDRLFL | -0.515
14 | HMNKPKIIINSVDDSVFSDYVKDSLSIAEVARSIGIDNNKINTSVYREIHKRIDSLKLDTSHFTGGAWN | -0.235
15 | HMNKPLFVYPNPVHQGKINLSKATNFMVVDLLGQTVNKTNYGKDFSIDNLPNGVYFIKTTEGEIIKFMK | -0.701
16 | HMNKQEFLNTLRIIFKKANVLDVESIIDVYEEHFAVGYEKGLNDEQIIKSLGTPKEIYTSYVEAGI | -1.31
17 | HMNKSGVVLIRVTVDASGRVTSAAYEPKGSTTSDVELVAEARKAALRTRFTESRTVIEGGVITYIFKL | -2.59
18 | HMNKSYTVPDVRGMTVEEAQEAEGVKDIFTVHVQGTRKTDEYQPGQIVEQDPIAGRTRKSNFVIEVYVAE | -0.34
19 | HMNKTQLQIEDEVLKPLIAEIFSKSKGRFGARKIRSKLMGLGYTASERRILRLMKELGLSSAG | -1.19
20 | HMNKTVKIPNVSNLSREDAESVLKENGISVNSEVKQIESDTIEKGKVVKTDPSIGTSVKKGRSITIYVSSG | 0.544
21 | HMNKWMQLASEEDKKLFNEAPKEIQDSITESAKFFDIRTKADVDTFWANTGLRQMKQQAMLNESFVNEY | -0.0697
22 | HMNLDMVINKIGIVTEDIKQDKIGEVKVLGKRWSAYSNTELKKDEKVKILSIDGVKLKVEKI | -0.135
23 | HMNLGAHVYWRNHRAYGDFREYEDVGGGREALALPGSTWGTKDPRVAQALFAARLTEFQEARVGR | -0.989
24 | HMNLGVIYSLKAEVRSEPNTFSTRLFEVHEGLKVSINQLENDWVEIELLDGKTGWISNDQIRLI | -2.61
25 | HMNLIFFSENLSTFRKEKGWTQSELAEKLGVKANTISNYEKGISTPDYKIIAKLRELFEMPTDVLLYSNLS | -1.86
26 | HMNLLDYDFFEKMSSKEQEEIVEKVYIDFLNKSTGTNSPFYLKLFEKGKKSYIVNWLNENNF | -1.77

Row | Sequence | soluble fraction (log2)
27 | HMNLLSPREKQSLTLYASGLTLREVASELKLSPNSVGKFISRGKFKLNKSGAIVNSKTSIYLELKKRNLI | -0.147
28 | HMNLNESVELGQELLSQALAQLGIRGELSPSTIDKLLAESSAKSMEELYADIGIGKRMPALVARHIFGLMD | -0.627
29 | HMNLQAYQSVLDKLNEEYGTTFRFPTEEELHEVGLTNTVDPRTATVSATEFEKYMRPIAERISQANL | -0.205
30 | HMNLSAREWTSADGSRTFQGELTGFQDGKVKVRRSDGKSLVFAIELLSESDQQFIKTNQLVIAKKDED | 0.0766
31 | HMNLYHALDQQGEVYLTIPPRQSGRGKVTLMIDGRVREMDAMTDGDALKTGSKVRVTEILDENALKVEAM | 0.215
32 | HMNMAEETLDTAAKILKAAEEEFMEKGYGNAKMMSIAARAGVSHSMLHYYYRSKGKLFQMIFDEKA | -1.41
33 | HMNMAEQGISLDSEAGKARFVSQALPLLKQLPDGVFKQRMLNQLADRVEVTADFIAQQLAQLKAA | -0.0979
34 | HMNMAVELEDGTQIFVFSEDGEFAGKRAVIADEEGRPTEENAPAGTHTLRDGRSIVVGEGGVIESVVET | -0.0672
35 | HMNMEYQKAINHIVQMVKDGQLIVGSKIPSERDLSESLGIGRNSTREAISILRGMGLVESRHGSGNYIAKD | -0.2
36 | HMNMGEKIRSLIGQFGVTSEDLKNLSVANLLIRMNQEAGDSKTKGILASLLETVNKAGVGNLTPDALGIK | -0.164
37 | HMNMLGEQVRNIRKSRGFTLKALAEQTGLSIGYISQIERNLTDPSLSTLRKISAALDVPTYLFMG | -2.13
38 | HMNMLGSNIKYLRNRHKLSQQELSEKLGVPRSSLSDYERGHTQVGLDSLIKLADIFDVKIDDLLRSNLSHR | -0.439
39 | HMNMPHEIDANFISSLGRLIDNHGKNYGDFQIFREMFLDYFPRFDELSSNNKEKINRRLYKFFETLFG | -2.09
40 | HMNMVEESVKKSSQWAVFEPNTISTWVKIQAMIENYLYQKWKEGALAGAKPEHAFFVKVGLGETM | 0.258
41 | HMNNEISINGNKIYFNKNISKVFIYDISGKLIKHKNNFNNNFIDLSEFNSAFYIIKALDINENYTTKKIFL | -1.69
42 | HMNNFTPEHLEKDIEGSLFFRRLKETAREEPGSLTVAQKDFIQMWHDQADGVYTLRQVFVQTAFDHVRSL | 0.315
43 | HMNNFTQSALDTIDGIGKRRKKLLLNHFGSVKLIENASIEDIKKIDGISDLVANKIYNFFNKN | -1.04
44 | HMNNGAEIGAEIRSLRKARGLTLEDLAAKIGRSVGYISQVERGISPLTIPNLKAIAEVLGVGINWFFRGEA | -1.15
45 | HMNNILNYTIAELMEILKIDDLETENVINSSNNLINKSINENNFPLAEFYEDVKNNLIEFIETFDS | -0.771
46 | HMNNLELSEEEKSVLTIIEKEGLIELDKLKTKLELSNKKWDKTLKFLTKNKLAKVVKNDNGLFVEL | -0.158
47 | HMNNLLEDIKARLMAQAEAGGHIDTETELAEHFGVTRYRIRKELDLLSQMGLLRRQPKNGIEVLTV | -0.171
48 | HMNNLNDIIEIIRIYAKNYARNNPSWNHSELINRIRDKALGEAEDYNIRLSEEDLALITELSLRGL | -0.713
49 | HMNNMVNTLLKLLAEQDVLRGIVRRFTPSSVFVFLQNEEVEVELPLQGRSLAPGQLVELTQEGASVALKRL | -0.936
50 | HMNNPLLDKVYQLMKQNNITEEEIVRAVAMKGYFPDDMKLGDYPDDFIDGVLIGAWDQIKQFIINNISPFK | -0.281
51 | HMNNSDIDITVGKNSISINNPNRTNIIIYSSNGMLIDSSKNASYKRNLPSGIYIVKSGSSTHKVIV | -0.905
52 | HMNNTIKFFVSQDDDSTRLDVFLSKKIENLTRSNIKKFINLNNVKINKATINSPSKKVKLYDEIEIKFSS | -2.46

Row | Sequence | soluble fraction (log2)
53 | HMNNTIKFSVDSQNSGKRLDIFLTENIKNYTRSFLKKLIENRQVKLNNNFIISPSERVKFKDQININILQ | -1.8
54 | HMNNVDIMGRMVYDDQHREVINFGKYKGVLVTEVLKKDPGYFSWIQQGDFPSDMKRIMMAIKLRM | -2.61
55 | HMNNVDQLIEQYKTLPGGLLPLLHAIKHALGYIPESTVGSIAKGFNLSRAEVHGVISFYHDFNTQP | 0.07
56 | HMNPAYTDSRMKTFLEELPVMKASLSQKHVTRFLVWQEYIGRHPDGYGKSQFFYHLKQNLVAAKG | -0.391
57 | HMNPDTERIREFVAVSLKNRKVATSGEIQNMIVKQFKNFKLKSHGYSNMKSFLSSIDKIQLNSNGKYSLK | -1.89
58 | HMNPEDDLLKAIIMKYFSNAQVQVDKNVIEYLLKRVDRDYQNLYNILEKINILSLQRKSKITTHLIRDIM | -0.414
59 | HMNPFLELTEREMDVLRLIAIGRNNQEIASELVISEKTVKTHITNIFSKLHFKDRTQAAAYAWQSGIVR | -1.73
60 | HMNPHGVAIIDVRKGKASTLRSLATSVRSLGEWDQLKIPIFNLESLTSLVLWHGLDAIVKEPESLQSNLIL | -0.513
61 | HMNPHIQFWSLLRRQPDYNSAYKDELKAMFVWQWSGEKTESLNEFYKTDPYRYKSMLMDMRNRAL | -3.33
62 | HMNPIDAHVGARVRLRRMLIGMSQEKLGELLGVTFQQIQKYEKGANRIGASRLYEVSRVLDVPVQYFFDDM | -3.66
63 | HMNPLDGTSVHPESYEAAEKLLKKQGFSLEDISGGKLTGLSLTIKDYARLAKELEIGEITLRDIVKELEK | -0.132
64 | HMNPLHYKAAHWVREGLFDDLKSFVELETRINSIFEEKDRGDVFEIFIEGYRSFSKWRALVLRLA | -0.365
65 | HMNPNEVQIPDLVNKTEEEAEQILKDLKLKLVVKSEEYDENIEKGKIISQDPTYKENYKIKEHSEISVIIS | 0.586
66 | HMNPNPFVNLSPRELEVLNLLFKGYGVLEISNELNIGQTTASTFKSRILKKTSTHSVVELIKLAEQYGFIP | -0.85
67 | HMNPNPYIVLGVDKSMPFGEIKKVYQRKRREFHPDSLVAKGLPDELLQKAQDKFIAIQEAYKSIEKNQV | 0.44
68 | HMNPNSIDEKLKLLSNREKEVAILVLKKLSYFEISEQLNITIRTVKAHTKNIYEKFNVSNRLAFLLLFN | -0.00667
69 | HMNPSAFSEYSFELLQSALLKKKIDENLSNQTIARDAGVSEAFVQKVLTNNVKRPSVKNRVRMISYLGLD | -1.47
70 | HMNPSFTMGTRIKEYIDAHYLEDLKLADIAEALHINLYYLSHTFKDLTGSSPMQYIIRRRIEE | -0.857
71 | HMNPSPYLRRHLSGDWGDLDEDDRRSNDAALASGEARLLSSYQVDPDLKLWIITEWDRSVTTLLLPSE | -0.0994
72 | HMNPTLPYGFAKRHGVILLEAGEVAVVGLREGADPAALIETRRALGRPLRVEPLDQATFDRRLSQVYA | -0.512
73 | HMNPTSLTFRSNVKDGKVYVDGIFKGSSDLDFDLPKGRHSIRIEKDGYVPFAKTINLIKALVIDFNMEKA | -2.02
74 | HMNPTTQIQYNLPKSEFVSIYIYDLIGNRVKSLINNYQDAGYKSVYWDAMNDLGQPVSAGMYIY | -0.0727
75 | HMNQKKFIQADYEDRLFDHLAFEVKDMEKIISMMRREKFTITDEPFRLSPTGSLIAFVEDPDRTLIELIER | -0.41
76 | HMNQNAMIGAHIRNLRLAKKLTLKQLSDESGLSVGFLSQLERGMSSIAIDTLARLAHILGADLSSFF | -2.65
